# In publication PMC6351565, “Mechanism of IRSp53 inhibition by 14-3-3” (Nature Communications, 2019):
# Where no end group is shown, it is not given here. [ ]: non-standard residue; d: D form. pT = C[C@@H](OP(=O)(O)O)[C@H](N)C(=O)O; pS = N[C@@H](COP(=O)(O)O)C(=O)O
# Columns and labels:
# Settings in all cases: both partners purified
# 14-3-3θ [1] = target: T1, 14-3-3θ (human, UniProt P27348 1-245); assay: ITC; peptide in the syringe (100 μM singly, 50 μM doubly phosphorylated) titrated into 10 μM 14-3-3θ in the cell; 20 °C; 20 mM HEPES pH 7.5, 150 mM NaCl, 1 mM MgCl2, 0.1 mM TCEP; single-site model
# T1 construct: 14-3-3θ, human, UniProt P27348; also called 14-3-3 theta; 14-3-3τ
# T1 sequence: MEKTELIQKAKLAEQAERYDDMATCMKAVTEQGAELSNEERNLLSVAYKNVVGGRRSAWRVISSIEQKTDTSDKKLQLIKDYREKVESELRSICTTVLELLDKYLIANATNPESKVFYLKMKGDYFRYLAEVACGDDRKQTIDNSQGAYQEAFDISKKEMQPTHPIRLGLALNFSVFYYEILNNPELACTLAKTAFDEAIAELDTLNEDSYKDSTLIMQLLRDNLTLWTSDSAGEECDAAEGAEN
# [2] = target: T2, IRSp53-FLAG (wild type), natively phosphorylated (human (from the printed UniProt entry), UniProt Q9UQB8-4 1-521, phosphorylated in HEK293T cells at S325, T340, T360, S366 and a residue within 452SSST455, most likely S454 (mass spectrometry of the purified 14-3-3-binding-competent fraction)); assay: pull-down; 14-3-3θ-affinity column: MBP-14-3-3θ bound to amylose resin; FLAG-eluted IRSp53-FLAG loaded; eluted with 200 μM Sites 2,3 peptide
# T2 construct: also called pIRSp53; WT IRSp53-FLAG; source: HEK293T, transfected, in lysate; not shown: FLAG, C-terminal, kept
# T2 sequence (looked up): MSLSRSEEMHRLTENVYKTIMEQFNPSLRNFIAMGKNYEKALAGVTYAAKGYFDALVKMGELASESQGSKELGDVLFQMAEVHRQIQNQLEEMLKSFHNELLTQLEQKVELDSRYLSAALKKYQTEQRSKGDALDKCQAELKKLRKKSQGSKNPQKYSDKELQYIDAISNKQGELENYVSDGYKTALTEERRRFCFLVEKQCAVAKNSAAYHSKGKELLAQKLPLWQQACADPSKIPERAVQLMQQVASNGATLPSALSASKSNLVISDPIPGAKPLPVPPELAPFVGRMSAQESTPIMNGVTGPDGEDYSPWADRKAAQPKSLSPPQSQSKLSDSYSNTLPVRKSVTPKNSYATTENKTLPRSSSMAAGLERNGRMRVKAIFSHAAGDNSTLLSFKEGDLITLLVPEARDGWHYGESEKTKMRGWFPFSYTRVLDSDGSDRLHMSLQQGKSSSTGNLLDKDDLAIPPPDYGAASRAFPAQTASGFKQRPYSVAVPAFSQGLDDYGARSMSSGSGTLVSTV
# 14-3-3θ [3] = target: T1, 14-3-3θ; assay: SEC-MALS; 14-3-3θ (4 mg/mL) pre-incubated 2 h at 20 °C with Site 2 (two peptides per dimer) or Sites 2,4 (one peptide per dimer); TSKgel SuperSW2000
# 2xFLAG-Eps8 = target: T3, 2xFLAG-Eps8 (human, UniProt Q12929 1-822); assay: other fluorescence titration; intramolecular FRET sensor (fluorescein/rhodamine on C230 and C519 of IRSp53); Cdc42, Eps8 and/or 14-3-3θ titrated into the sensor, also back to back; 20 °C; 25 mM Tris-HCl pH 7.5, 150 mM NaCl, 1 mM MgCl2, 5% glycerol, 0.1 mM TCEP; observed Kd (Kobs) from the fits
# T3 construct: Eps8, human, UniProt Q12929, full length; also called FLAG-tagged Eps8
# T3 sequence (Q12929 whole entry): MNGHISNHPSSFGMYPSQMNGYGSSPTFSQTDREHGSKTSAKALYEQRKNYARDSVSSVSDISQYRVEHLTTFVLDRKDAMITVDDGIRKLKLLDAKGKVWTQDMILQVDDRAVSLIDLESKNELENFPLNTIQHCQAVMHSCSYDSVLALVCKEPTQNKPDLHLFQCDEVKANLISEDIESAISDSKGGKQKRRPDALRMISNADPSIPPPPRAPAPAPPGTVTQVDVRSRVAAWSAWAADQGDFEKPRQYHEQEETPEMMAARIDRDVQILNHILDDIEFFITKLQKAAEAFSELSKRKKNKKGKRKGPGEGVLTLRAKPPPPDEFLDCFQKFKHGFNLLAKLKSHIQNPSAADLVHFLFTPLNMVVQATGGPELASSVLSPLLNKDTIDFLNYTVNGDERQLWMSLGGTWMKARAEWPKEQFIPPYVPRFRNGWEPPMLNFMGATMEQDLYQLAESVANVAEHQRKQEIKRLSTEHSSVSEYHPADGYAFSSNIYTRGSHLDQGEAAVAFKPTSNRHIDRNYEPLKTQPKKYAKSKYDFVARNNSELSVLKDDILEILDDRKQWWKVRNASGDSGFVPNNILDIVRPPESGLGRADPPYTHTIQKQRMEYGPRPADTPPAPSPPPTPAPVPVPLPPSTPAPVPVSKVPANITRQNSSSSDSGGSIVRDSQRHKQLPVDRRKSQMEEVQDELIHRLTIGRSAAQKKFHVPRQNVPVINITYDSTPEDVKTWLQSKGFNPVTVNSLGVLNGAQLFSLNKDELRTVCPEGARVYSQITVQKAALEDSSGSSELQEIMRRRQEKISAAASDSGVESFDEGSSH
Binder,Kd (14-3-3θ [1]),stoichiometry N (14-3-3θ [1]),further results
"Ac-DSYSN[pT]LPVRKSVTPKNSYATTENK[pT]LPRSSS-NH2 (SMILES CC(=O)N[C@@H](CC(=O)O)C(=O)N[C@@H](CO)C(=O)N[C@@H](Cc1ccc(O)cc1)C(=O)N[C@@H](CO)C(=O)N[C@@H](CC(N)=O)C(=O)N[C@H](C(=O)N[C@@H](CC(C)C)C(=O)N1CCC[C@H]1C(=O)N[C@H](C(=O)N[C@@H](CCCNC(=N)N)C(=O)N[C@@H](CCCCN)C(=O)N[C@@H](CO)C(=O)N[C@H](C(=O)N[C@H](C(=O)N1CCC[C@H]1C(=O)N[C@@H](CCCCN)C(=O)N[C@@H](CC(N)=O)C(=O)N[C@@H](CO)C(=O)N[C@@H](Cc1ccc(O)cc1)C(=O)N[C@@H](C)C(=O)N[C@H](C(=O)N[C@H](C(=O)N[C@@H](CCC(=O)O)C(=O)N[C@@H](CC(N)=O)C(=O)N[C@@H](CCCCN)C(=O)N[C@H](C(=O)N[C@@H](CC(C)C)C(=O)N1CCC[C@H]1C(=O)N[C@@H](CCCNC(=N)N)C(=O)N[C@@H](CO)C(=O)N[C@@H](CO)C(=O)N[C@@H](CO)C(N)=O)[C@@H](C)OP(=O)(O)O)[C@@H](C)O)[C@@H](C)O)[C@@H](C)O)C(C)C)C(C)C)[C@@H](C)OP(=O)(O)O, IRSp53 stretch of 29-40 residues that holds T340 and T360; also called doubly-phosphorylated IRSp53 peptide Sites 2,3; source: synthetic peptide (Dr. Paul Leavis, Tufts University)) [Sites 2,3 peptide (pT340/pT360)]",45 nM,~0.5 peptide per 14-3-3θ subunit (one peptide per 14-3-3θ dimer),
"MBP-14-3-3θ (natural protein, human, UniProt P27348 1-245, looked up, also called MBP-tagged 14-3-3θ; source: E. coli BL21(DE3), purified (amylose resin, SEC)) MEKTELIQKAKLAEQAERYDDMATCMKAVTEQGAELSNEERNLLSVAYKNVVGGRRSAWRVISSIEQKTDTSDKKLQLIKDYREKVESELRSICTTVLELLDKYLIANATNPESKVFYLKMKGDYFRYLAEVACGDDRKQTIDNSQGAYQEAFDISKKEMQPTHPIRLGLALNFSVFYYEILNNPELACTLAKTAFDEAIAELDTLNEDSYKDSTLIMQLLRDNLTLWTSDSAGEECDAAEGAEN",,,binding result [2]: binds
Ac-ATTENK[pT]LPRSSS-NH2 (SMILES CC(=O)N[C@@H](C)C(=O)N[C@H](C(=O)N[C@H](C(=O)N[C@@H](CCC(=O)O)C(=O)N[C@@H](CC(N)=O)C(=O)N[C@@H](CCCCN)C(=O)N[C@H](C(=O)N[C@@H](CC(C)C)C(=O)N1CCC[C@H]1C(=O)N[C@@H](CCCNC(=N)N)C(=O)N[C@@H](CO)C(=O)N[C@@H](CO)C(=O)N[C@@H](CO)C(N)=O)[C@@H](C)OP(=O)(O)O)[C@@H](C)O)[C@@H](C)O) [Site 3 peptide (pT360)],,~1 peptide per 14-3-3θ subunit (two peptides per 14-3-3θ dimer),
"Ac-QQGKSSSTGNLLD-NH2 (also: phosphoserine at S454, which serine of the chain is not given here) [Site 5 peptide (pS454)]",12000 nM,~1 peptide per 14-3-3θ subunit (two peptides per 14-3-3θ dimer),
"Ac-DSYSN[pT]LPVRKSVTPKNSYATTENKTLPRSS[pS]MAAGLE-NH2 (SMILES CSCC[C@H](NC(=O)[C@H](COP(=O)(O)O)NC(=O)[C@H](CO)NC(=O)[C@H](CO)NC(=O)[C@H](CCCNC(=N)N)NC(=O)[C@@H]1CCCN1C(=O)[C@H](CC(C)C)NC(=O)[C@@H](NC(=O)[C@H](CCCCN)NC(=O)[C@H](CC(N)=O)NC(=O)[C@H](CCC(=O)O)NC(=O)[C@@H](NC(=O)[C@@H](NC(=O)[C@H](C)NC(=O)[C@H](Cc1ccc(O)cc1)NC(=O)[C@H](CO)NC(=O)[C@H](CC(N)=O)NC(=O)[C@H](CCCCN)NC(=O)[C@@H]1CCCN1C(=O)[C@@H](NC(=O)[C@@H](NC(=O)[C@H](CO)NC(=O)[C@H](CCCCN)NC(=O)[C@H](CCCNC(=N)N)NC(=O)[C@@H](NC(=O)[C@@H]1CCCN1C(=O)[C@H](CC(C)C)NC(=O)[C@@H](NC(=O)[C@H](CC(N)=O)NC(=O)[C@H](CO)NC(=O)[C@H](Cc1ccc(O)cc1)NC(=O)[C@H](CO)NC(=O)[C@H](CC(=O)O)NC(C)=O)[C@@H](C)OP(=O)(O)O)C(C)C)C(C)C)[C@@H](C)O)[C@@H](C)O)[C@@H](C)O)[C@@H](C)O)C(=O)N[C@@H](C)C(=O)N[C@@H](C)C(=O)NCC(=O)N[C@@H](CC(C)C)C(=O)N[C@@H](CCC(=O)O)C(N)=O, IRSp53 stretch of 29-40 residues that holds T340 and S366; source: synthetic peptide (Dr. Paul Leavis, Tufts University)) [Sites 2,4 peptide (pT340/pS366)]",67 nM,~0.5 peptide per 14-3-3θ subunit (one peptide per 14-3-3θ dimer),stoichiometry N (14-3-3θ [3]): 0.5 peptide per 14-3-3θ subunit
"pIRSp53FS (natural protein, human (from the printed UniProt entry), UniProt Q9UQB8-4 1-521, looked up, natively phosphorylated in HEK293T cells; fluorescein maleimide / rhodamine maleimide on C230 and C519, IRSp53 (BAIAP2), isoform-4, UniProt Q9UQB8-4, full length, S519C; Expressed and purified as m4; also called IRSp53 FRET sensor; phosphorylated IRSp53 (mutant S519C)) MSLSRSEEMHRLTENVYKTIMEQFNPSLRNFIAMGKNYEKALAGVTYAAKGYFDALVKMGELASESQGSKELGDVLFQMAEVHRQIQNQLEEMLKSFHNELLTQLEQKVELDSRYLSAALKKYQTEQRSKGDALDKCQAELKKLRKKSQGSKNPQKYSDKELQYIDAISNKQGELENYVSDGYKTALTEERRRFCFLVEKQCAVAKNSAAYHSKGKELLAQKLPLWQQACADPSKIPERAVQLMQQVASNGATLPSALSASKSNLVISDPIPGAKPLPVPPELAPFVGRMSAQESTPIMNGVTGPDGEDYSPWADRKAAQPKSLSPPQSQSKLSDSYSNTLPVRKSVTPKNSYATTENKTLPRSSSMAAGLERNGRMRVKAIFSHAAGDNSTLLSFKEGDLITLLVPEARDGWHYGESEKTKMRGWFPFSYTRVLDSDGSDRLHMSLQQGKSSSTGNLLDKDDLAIPPPDYGAASRAFPAQTASGFKQRPYSVAVPAFSQGLDDYGARSMSSGSGTLVCTV",,,Kd (2xFLAG-Eps8): 42 nM
"AQPKSL[pS]PPQSQSKLSDSYSN[pT]LPVRKS [Sites 1,2 peptide (pS325/pT340)]",,~1 peptide per 14-3-3θ subunit,
Ac-LSDSYSN[pT]LPVRKS-NH2 (SMILES CC(=O)N[C@@H](CC(C)C)C(=O)N[C@@H](CO)C(=O)N[C@@H](CC(=O)O)C(=O)N[C@@H](CO)C(=O)N[C@@H](Cc1ccc(O)cc1)C(=O)N[C@@H](CO)C(=O)N[C@@H](CC(N)=O)C(=O)N[C@H](C(=O)N[C@@H](CC(C)C)C(=O)N1CCC[C@H]1C(=O)N[C@H](C(=O)N[C@@H](CCCNC(=N)N)C(=O)N[C@@H](CCCCN)C(=O)N[C@@H](CO)C(N)=O)C(C)C)[C@@H](C)OP(=O)(O)O) [Site 2 peptide (pT340)],,~1 peptide per 14-3-3θ subunit (two peptides per 14-3-3θ dimer),stoichiometry N (14-3-3θ [3]): 1 peptide per 14-3-3θ subunit
Ac-TLPRSS[pS]MAAGLEK-NH2 (SMILES CSCC[C@H](NC(=O)[C@H](COP(=O)(O)O)NC(=O)[C@H](CO)NC(=O)[C@H](CO)NC(=O)[C@H](CCCNC(=N)N)NC(=O)[C@@H]1CCCN1C(=O)[C@H](CC(C)C)NC(=O)[C@@H](NC(C)=O)[C@@H](C)O)C(=O)N[C@@H](C)C(=O)N[C@@H](C)C(=O)NCC(=O)N[C@@H](CC(C)C)C(=O)N[C@@H](CCC(=O)O)C(=O)N[C@@H](CCCCN)C(N)=O) [Site 4 peptide (pS366)],,~1 peptide per 14-3-3θ subunit (two peptides per 14-3-3θ dimer),
